# T1: M. tuberculosis Rv0020c (M. tuberculosis H37Rv, UniProt P71590 1-527)
# T1 sequence: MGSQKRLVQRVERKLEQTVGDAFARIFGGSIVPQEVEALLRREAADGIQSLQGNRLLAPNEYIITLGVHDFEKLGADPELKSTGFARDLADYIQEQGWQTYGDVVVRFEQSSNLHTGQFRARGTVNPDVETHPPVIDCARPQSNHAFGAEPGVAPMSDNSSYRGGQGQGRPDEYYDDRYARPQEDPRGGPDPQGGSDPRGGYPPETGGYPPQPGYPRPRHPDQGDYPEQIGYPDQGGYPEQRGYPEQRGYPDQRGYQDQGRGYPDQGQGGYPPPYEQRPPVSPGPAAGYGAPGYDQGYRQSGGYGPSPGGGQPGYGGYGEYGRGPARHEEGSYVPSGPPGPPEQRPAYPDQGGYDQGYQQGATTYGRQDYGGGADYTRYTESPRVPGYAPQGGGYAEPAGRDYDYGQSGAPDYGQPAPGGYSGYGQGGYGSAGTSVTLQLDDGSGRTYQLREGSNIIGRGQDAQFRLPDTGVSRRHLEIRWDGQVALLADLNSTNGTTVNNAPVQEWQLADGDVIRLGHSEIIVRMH
# Target: T1, M. tuberculosis Rv0020c
# Assay: ELISA
# Details: both partners purified
row,Binder,binding result
1,"MBP-tagged MupDivIVA-P (Mup012c residues 1-87, phosphorylated by co-expression with PknQ) (natural protein, M. ulcerans Agy99 (plasmid pMUM001), UniProt Q6MZ92 1-87, looked up, also called phosphorylated MupDivIVA) MSHSELLDPALPKSPFGKQGYRYDDVDVFLRLIADELQGSDLSESDIHSITFRCAAPLTRGYDTESVDRFLDRIAETIARGHGDEGQ",binds
2,MBP-tagged MupDivIVA S43/45/49A triple mutant (natural protein) MSHSELLDPALPKSPFGKQGYRYDDVDVFLRLIADELQGSDLAEADIHAITFRCAAPLTRGYDTESVDRFLDRIAETIARGHGDEGQ,binds

# Source: PMC4238996 (PLoS Neglected Tropical Diseases, 2014)
